{"source": "paper PMC9527319", "about": "“^99mTc-labeled iRGD for single-positron emission computed tomography imaging of triple-negative breast cancer” (Frontiers in Bioengineering and Biotechnology, 2022)", "key": {"4T1 tumor-bearing mice [1]": {"system": "4T1 tumor-bearing mice", "details": "for course of SPECT signal in tumor with time: i.v. tail vein, 0.5, 1, 2 and 4 h post-injection; for tumor accumulation (SPECT): i.v. tail vein, 0.5 h post-injection", "description": "Murine breast cancer cells 4T1 were purchased from Procell Life Science and Technology Co., Ltd. (Wuhan, China) and maintained in RPMI-1640 supplemented with 10% FBS. Four-week-old female BALB/c nude mice (18–20 g) and healthy ICR mice (20–22 g) were purchased from Shanghai Laboratory Animal Center of the Chinese Academy of Sciences (Shanghai, China). To establish breast cancer models, four-week-old female BALB/c nude mice were subcutaneously injected in their right-side flanks with 5 × 10^6 4T1 cells suspended in 100 μl of PBS. When the tumor diameter reached 0.8–1.2 cm, the mice were used for animal experiments. All animal experiments were repeated three times and performed according to the protocols established by the Ethics Committee of Shanghai General Hospital.\nThe 4T1 tumor-bearing mice were randomly divided into three groups (three mice per group). After anesthetization with pentobarbital sodium (40 mg/kg), 200 μl of ^99mTc-HYNIC-iRGD, ^99mTc-HYNIC-iRGE, or ^99mTc-HYNIC-CG7C ([^99mTc] = 10 mCi/ml) was injected via the tail vein. SPECT images were acquired at 0.5, 1, 2, and 4 h post-injection using a SPECT imaging system equipped with a Xeleris 2.0 workstation and low-energy general-purpose collimators (Infinia, Denver, CO, United States)."}, "[2]": {"assay": "In vitro stability of 99mTc-labeled peptides in FBS (RCP by TLC)", "assay_type": "in vitro ADME, bovine", "details": "FBS at 37°C, within 6 h, RCP by TLC (silica gel 60 F254, 50% acetonitrile)", "procedure": "(§1) HYNIC-iRGD, HYNIC-iRGE, and HYNIC-CG7C were labeled with ^99mTc according to previously published procedures in the literature ([Bohn et al., 2013]; [Xu et al., 2017]; [Gong et al., 2022]). In brief, a mixture of 50 μl HYNIC-modified peptide (1 mg/ml in water), 0.5 ml EDDA solution (20 mg/ml in 0.1 M NaOH), 0.5 ml tricine solution (40 mg/ml in 0.2 M PBS, pH = 6.0), 1 ml Na^99mTcO4 solution (50 mCi/ml), and 50 μl SnCl2 solution (1 mg/ml in 0.1 M HCl) were heated at 100°C for 15 min. After cooling to room temperature, the mixture was analyzed using instant thin-layer chromatography (TLC) and radio-high-performance liquid chromatography (radio-HPLC). The ^99mTc-labeled peptides were characterized using an Agilent 1260 HPLC system (Agilent Technologies, United States) equipped with a UV-vis detector (λ = 220 nm) and a radioactive flow detector (BioScan, United States). A SunFire C18 column (5 μm, 4.6 × 250 mm, Waters, Japan) was used at a flow rate of 1 ml/min with the following gradient method: 0.1% Trifluoroacetic acid in H2O and CH3CN (0–20 min, 10%–35% CH3CN) for iRGD and iRGE, and 0.1% trifluoroacetic acid in H2O and CH3CN (0–20 min, 25%–60% CH3CN) for CG7C. Their RCPs were determined by radio-HPLC and rapidly analyzed by TLC in a system consisting of silica gel 60 F254 TLC plates (Merck, Germany) and 50% acetonitrile as mobile phase. […]"}, "[3]": {"assay": "In vitro stability of 99mTc-labeled peptides in PBS and cysteine solution (RCP by TLC)", "assay_type": "physicochemical", "details": "PBS (0.1 M, pH = 7.4) and cysteine solution (100-fold molar excess over the peptides), room temperature, within 6 h, RCP by TLC (silica gel 60 F254, 50% acetonitrile)", "procedure": "as §1"}, "4T1 tumor-bearing mice [4]": {"system": "4T1 tumor-bearing mice", "assay": "Biodistribution (gamma-counter, %ID/g)", "assay_type": "in vivo", "procedure": "The radioactivity counts of all samples were measured using a γ-counter (CAPINTEC, United States) and expressed as counts per minute after correction for decay. The results are shown as the percentage of injection dose/gram (%ID/g) of wet tissue for each time point in each group."}, "[5]": {"assay": "Pharmacokinetics (blood radioactivity-time curve)", "assay_type": "in vivo", "details": "healthy ICR mice; for clear-phase half-life t1/2(β) / distribution phase half-life t1/2(α): i.v., blood, two-compartment model (DAS 2.0); for tissue uptake at 1 min / tissue uptake at 0.5 h / tissue uptake at 3 h: mouse, whole blood, iv, 20 uCi, total radioactivity, i.v. 20 μCi in 200 μl PBS, γ-counter, read-out: radioactivity level in blood; for tissue uptake at 1 min / tissue uptake at 0.5 h: mean ± SD; for tissue uptake at 0.5 h: 30 min; for tissue uptake at 3 h: 180 min", "procedure": "The pharmacokinetic profiles of ^99mTc-HYNIC-iRGD and ^99mTc-HYNIC-iRGE were evaluated in healthy ICR mice. Each mouse was intravenously injected with ^99mTc-HYNIC-iRGD or ^99mTc-HYNIC-iRGE at a dose of 20 μCi in 200 μl PBS solution. Blood samples ([…]) from each mouse were immediately collected and weighed at designated times (1, 2, 5, 15, 30, 60, 120, and 180 min), and the radioactivity was measured using a γ-counter to calculate the %ID/g. Moreover, the pharmacokinetic data were analyzed by DAS 2.0 (Shanghai, China) using a two-compartment model to calculate the half-lives of ^99mTc-HYNIC-iRGD and ^99mTc-HYNIC-iRGE in blood."}, "[6]": {"details": "i.v. 20 μCi, 4 h post-injection"}}, "note": "Where two headings read alike, the source gives them in different places. Bridge positions count the residues as written; N and C are the ends. Peptide text beside a SMILES is read from it. * marks the point of attachment. HYNIC = NNc1ccc(C(=O)*)cn1", "data": [{"smiles": "N=C(N)NCCC[C@@H]1NC(=O)[C@@H](NC(=O)c2ccc(NN)nc2)CSSC[C@@H](C(=O)O)NC(=O)[C@H](CC(=O)O)NC(=O)[C@@H]2CCCN2C(=O)CNC(=O)[C@H](CCCCN)NC(=O)[C@H](CC(=O)O)NC(=O)CNC1=O", "note": "[^99mTc-HYNIC-iRGD, metal not drawn]", "values": [{"measurement": "course of SPECT signal in tumor with time", "setting": "4T1 tumor-bearing mice [1]; 4T1 tumor-bearing nude mice", "result": "increase in tumor accumulation of radioactivity"}, {"measurement": "tumor accumulation (SPECT)", "setting": "4T1 tumor-bearing mice [1]; 4T1 tumor-bearing nude mice", "result": "distinct tumor accumulation"}, {"measurement": "radioactivity in bladder and kidneys (SPECT; clearance through the urinary system)", "setting": "4T1 tumor-bearing mice [1]; 4T1 tumor-bearing nude mice, i.v., each time point 0.5–4 h", "result": "high radioactivity"}, {"measurement": "changes in RCPs (stability in vitro)", "setting": "[2]", "result": "no obvious changes in RCPs"}, {"measurement": "changes in RCPs (stability in vitro)", "setting": "[3]", "result": "no obvious changes in RCPs"}, {"measurement": "tumor-to-muscle (T/M) ratio", "setting": "4T1 tumor-bearing mice [4]; i.v. 20 μCi, 0.5, 1, 2 and 4 h post-injection", "result": "higher in mice treated with ^99mTc-HYNIC-iRGD than in those treated with ^99mTc-HYNIC-iRGE at each time point"}, {"measurement": "tumor-to-kidney (T/K) ratio", "setting": "4T1 tumor-bearing mice [4]; i.v. 20 μCi, 0.5–4 h post-injection", "result": "much higher than for ^99mTc-HYNIC-iRGE and ^99mTc-HYNIC-CG7C"}, {"measurement": "tumor-to-blood (T/B) ratio", "setting": "4T1 tumor-bearing mice [4]; [6]", "result": 1.8}, {"measurement": "tumor-to-lung (T/Lu) ratio", "setting": "4T1 tumor-bearing mice [4]; [6]", "result": 1.9}, {"measurement": "clear-phase half-life t1/2(β)", "setting": "[5]", "result": 12.54, "unit": "min"}, {"measurement": "distribution phase half-life t1/2(α)", "setting": "[5]", "result": 1.43, "unit": "min"}, {"measurement": "tissue uptake at 1 min", "setting": "[5]", "result": "14.3 ± 0.95", "unit": "%ID/g"}, {"measurement": "tissue uptake at 0.5 h", "setting": "[5]", "result": "1.26 ± 0.11", "unit": "%ID/g"}, {"measurement": "tissue uptake at 3 h", "setting": "[5]", "result": "~0.1", "unit": "%ID/g"}]}, {"smiles": "N=C(N)NCCC[C@@H]1NC(=O)[C@@H](NC(=O)c2ccc(NN)nc2)CSSC[C@@H](C(=O)O)NC(=O)[C@H](CC(=O)O)NC(=O)[C@@H]2CCCN2C(=O)CNC(=O)[C@H](CCCCN)NC(=O)[C@H](CCC(=O)O)NC(=O)CNC1=O", "note": "[^99mTc-HYNIC-iRGE, metal not drawn] ({HYNIC}-CRGEKGPDC-OH; disulfide 1-9 (inferred); N-terminus and C-terminus assumed)", "values": [{"measurement": "course of SPECT signal in tumor with time", "setting": "4T1 tumor-bearing mice [1]; 4T1 tumor-bearing nude mice", "result": "gradually faded with time"}, {"measurement": "tumor accumulation (SPECT)", "setting": "4T1 tumor-bearing mice [1]; 4T1 tumor-bearing nude mice", "result": "distinct tumor accumulation"}, {"measurement": "radioactivity in bladder and kidneys (SPECT; clearance through the urinary system)", "setting": "4T1 tumor-bearing mice [1]; mouse, in vivo, iv", "result": "high radioactivity"}, {"measurement": "changes in RCPs (stability in vitro)", "setting": "[2]", "result": "no obvious changes in RCPs"}, {"measurement": "changes in RCPs (stability in vitro)", "setting": "[3]", "result": "no obvious changes in RCPs"}, {"measurement": "clear-phase half-life t1/2(β)", "setting": "[5]", "result": 10.56, "unit": "min"}, {"measurement": "distribution phase half-life t1/2(α)", "setting": "[5]", "result": 0.88, "unit": "min"}, {"measurement": "tissue uptake at 1 min", "setting": "[5]", "result": "19.3 ± 2.52", "unit": "%ID/g"}, {"measurement": "tissue uptake at 0.5 h", "setting": "[5]", "result": "1.06 ± 0.08", "unit": "%ID/g"}, {"measurement": "tissue uptake at 3 h", "setting": "[5]", "result": "~0.1", "unit": "%ID/g"}]}]}
